B1: VH:VL chains; a variant is named by its letters at X, in order (parent)
chain 1: QVQLVQSGAEVKKPGASVKVSCKASGYTFTDYXMHWVRQAPGQGLEWMGXVNPNXXXTTYNQKFEGRVTMTTDTSTSTAYMELRSLRSDDTAVYYCARXNXLDXWGQGTTVTVSS
chain 2: DIQMTQSPSSLSASVGDRVTITCSVSSSVSSIYLHWYQQKPGKAPKLLIYSTSNLASGVPSRFSGSGSGTDFTLTISSLQPEDFATYYCQVYSGYPLTFGGGTKVEIK

In this data set the parent is B1. The data set can be described thus: yeast display scFab, FACS + sequencing. In short, it runs like this: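 The non-specific binding call was based on sorted and sequenced yeast displaying a heavy-chain CDR mutant scFab library. Labelling used anti-Myc with biotinylated ovalbumin (260 μg/mL in PBSB, 3 h, room temperature) or soluble membrane proteins (130 μg/mL, 20 min on ice), and FACS collected the top 25% and bottom 10% of binders in two replicates. Positive meant present in ≥3 of 4 pooled positive samples and in no negatives, and negative meant the converse.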
With DETGGDWF, the non-specific binding call is recorded as “no binding”.

VEGTSDLS: the non-specific binding call is given as “no binding”. Under DEGGTAGV stands “no binding”; under DEGGTAGA, “no binding”; under SEKGGSSA, “no binding”.

For VETGNSSA, the non-specific binding call is “no binding”. Under DEGKGFGS stands “binds”; under VETEGDWD, “no binding”. For VETEGDWY, the non-specific binding call is “no binding”. With VEGTGVGD, the non-specific binding call was “binds”. As for VEGTSAGD, the non-specific binding call is reported as “no binding”. Turning to DEGGTDLD, the non-specific binding call is on record as “no binding”. Under VERKGYLA stands “binds”.

With DEGGTALA, the non-specific binding call was “no binding”. Then VETEGAGA, with “no binding”. Then DEKKADWA, with “no binding”. In the case of YETGNVWF, the non-specific binding call was “no binding”. For the variant AETKGSLA, the non-specific binding call is “no binding”.

With VEGTSSGD, the non-specific binding call is “no binding”. Then VETGNDGA, with “no binding”; and VETGNDGV, with “no binding”; and YEKGGDVD, with “no binding”.

For YEKGGDVY, the non-specific binding call was “no binding”.

VETGGAVA: the non-specific binding call is “no binding”. As for AERRGSWS, the non-specific binding call is listed as “no binding”. Under FEGGTDVV stands “no binding”. Then SETTDSLD, with “no binding”; and AETGASLS, with “no binding”. Then VEKEGDVY, with “no binding”. With SEKEGDAA, the non-specific binding call is “no binding”. Under VETRSSSV stands “no binding”; under VEKKDYSA, “no binding”. Then AETKGDWD, with “no binding”; and AETKGDWV, with “no binding”; and YEKETAGV, with “binds”. For SEGTGSGD, the non-specific binding call is “no binding”. Then DEGGTSVD, with “no binding”; and SETGAALD, with “no binding”. Under VEKGGDVS stands “no binding”; under YEKGGDGV, “no binding”. Under YEKGGDGA stands “no binding”; under SEKKDYSA, “no binding”; under SEGRGAAA, “no binding”.

Turning to VEREADWF, the non-specific binding call was “no binding”. Under VEGTSAAY stands “no binding”; under VETEGAVY, “no binding”. With YEGTGDVV, the non-specific binding call was “no binding”. In the case of DEGGTDWY, the non-specific binding call is “no binding”.

Consider DEGGTDWV, for which the non-specific binding call was “no binding”.

As for DEGGTDWD, the non-specific binding call is “no binding”. For DEGKAAGS, the non-specific binding call is “no binding”. Then VETGGAAA, with “no binding”. Then AETAGAAA, with “no binding”; and DERRSSAF, with “no binding”. Then VEKGGDAA, with “no binding”; and VEGTSAVY, with “no binding”; and VEGTSAVF, with “no binding”. On to DEGRSVAA, for which the non-specific binding call is “binds”.

VETRSDVA: the non-specific binding call is reported as “no binding”. Then DEGGTDGY, with “no binding”. Under DEGGTDGS stands “no binding”. As to DEGGTDGV, the non-specific binding call was “no binding”. Then DEGRGSWA, with “no binding”; and DETGGSSD, with “no binding”; and VEGTSASV, with “no binding”. For the variant YEGGTDGA, the non-specific binding call is reported as “no binding”. Under AEGTNAGD stands “no binding”; under YEKEDYLA chain 1 G108D, “no binding”. Under YEGTGSAD stands “no binding”. Then YEGTGAGA, with “no binding”; and DEGGTDVY, with “no binding”; and DEGGTDVA, with “no binding”. For the variant DEGGTDVD, the non-specific binding call is on record as “no binding”. Then DEGGTDVF, with “no binding”; and DEKEGDAA, with “no binding”; and SEGGTDVV, with “no binding”.

On to VETGNDAV, for which the non-specific binding call is given as “no binding”. Under SEGRGAWY stands “no binding”; under VEGKGAGD, “no binding”.

Consider DEGKDDVA, for which the non-specific binding call is recorded as “no binding”. SEGTGSSV: the non-specific binding call is recorded as “no binding”. Under YEKGGAGD stands “no binding”; under YEGRGDVA, “no binding”; under VEGGNDGA, “no binding”. Then YERRDVLY, with “binds”.

With YEGTGAVF, the non-specific binding call was “no binding”. Under DEGTGAVA stands “no binding”. Regarding VEKTGVGA, the non-specific binding call is on record as “binds”. Then SETTDSSA, with “no binding”; and VEKEGDGA, with “no binding”. Regarding VEKEGDGV, the non-specific binding call is given as “no binding”. Then VEKEGDGS, with “no binding”. Then AETKGDGV, with “no binding”; and AETKGDGA, with “no binding”; and VEKGGSGD, with “no binding”. As for VEKGGSGV, the non-specific binding call is “no binding”. Then VEKEGDAD, with “no binding”; and VETEGSSV, with “no binding”; and YERRNDVV, with “no binding”. Then DETRSAGA, with “no binding”; and SETGGFVV, with “no binding”. Then VEGRGAVY, with “no binding”; and YEGGTDVV, with “no binding”.

DEGGTSLD: the non-specific binding call is “no binding”. Then VEGTGDWD, with “no binding”; and AETKGDVY, with “no binding”; and YEKGGAWS, with “binds”. Then FERTSVWF chain 1 L45F, with “binds”. Under VEKGGDGV stands “no binding”; under VEGGGYSV, “no binding”; under SETTDAGD, “no binding”. As for SETTDAGV, the non-specific binding call is given as “no binding”. Then DEGGTSAD, with “no binding”; and VETTDSWV, with “no binding”; and VEGTSSLD, with “no binding”. Then SEKKADWA, with “no binding”. Under YETGAAAA stands “no binding”; under VEGRGDAV, “no binding”. For FERTSALF, the non-specific binding call was “binds”. Consider YETETALY, for which the non-specific binding call is given as “no binding”. Then SEREADWF, with “no binding”; and SETKGDVY, with “no binding”; and SEGTGAGV, with “no binding”. For the variant VETGNSGA, the non-specific binding call is reported as “no binding”. Turning to FEKEADAF, the non-specific binding call is “binds”. Under YEGTGSWA stands “no binding”; under AEGTSAVF, “no binding”. As to DEGGTAAA, the non-specific binding call is reported as “no binding”. Turning to VEKEGDWY, the non-specific binding call was “no binding”.

In the case of VERGGDSY, the non-specific binding call is “no binding”.

AEGGTDVV: the non-specific binding call is “no binding”. As for SETTDDVA, the non-specific binding call is recorded as “no binding”. On to VERRGSWS, for which the non-specific binding call is listed as “no binding”. Then FEKGSDVA, with “no binding”. Under AEREADWV stands “no binding”. Take SETGGDWV: the non-specific binding call is reported as “no binding”. Under SERRDVLY stands “binds”; under FEKEGDAA, “no binding”; under YEGRNVGV, “binds”. Under SETGADVA stands “no binding”.

In the case of DEGRGDGV, the non-specific binding call is reported as “no binding”. Then DEGTDYAA, with “binds”; and DETEGDVF, with “no binding”.

Turning to VETEGSGV, the non-specific binding call is given as “no binding”. Regarding DEGRGDWY, the non-specific binding call is given as “no binding”. Then VETKGDWD, with “no binding”; and SEGRGDVY, with “no binding”. Then VEGRGDVF, with “no binding”; and DETKGDWD, with “no binding”. Under VEGGTDVA stands “no binding”; under VEGGTDVV, “no binding”; under VETEGDVY, “no binding”. Consider VETEGDVA, for which the non-specific binding call was “no binding”.

As for VEGTSDVV, the non-specific binding call was “no binding”. Then SEGTSAVF, with “no binding”; and YEGTGSLS, with “no binding”; and YETKGDWD, with “no binding”. In the case of DEKGGSSA, the non-specific binding call is “no binding”. On to VEKEGAGD, for which the non-specific binding call is “no binding”. Under AEGRGAVY stands “no binding”; under VEGTSSSV, “no binding”; under DEGGTSGV, “no binding”. Then VEGRGDGA, with “no binding”. Under VEGRGDGY stands “no binding”; under VERGTYGV, “no binding”. For FETGGYVY, the non-specific binding call is listed as “no binding”.

Consider YEKETVVA, for which the non-specific binding call is “binds”. For the variant VEGTNDVV, the non-specific binding call is listed as “no binding”. Under SETKGDWD stands “no binding”; under SETKGDWA, “no binding”. Under FERRAFGY stands “binds”; under YERTTDLS, “binds”; under SETTDDAV, “no binding”. Then VEGTSDGD, with “no binding”.

Turning to VETEGDGV, the non-specific binding call was “no binding”. Under VETEGDGF stands “no binding”; under VERGGFGS, “binds”. Then VETEGDAV, with “no binding”. Then SETGGDVA, with “no binding”; and AETKGAAA, with “no binding”; and YEGGTSGA, with “no binding”.

AETKGALD: the non-specific binding call was “no binding”. Then AETKGAVA, with “no binding”; and SEKKSAGA, with “no binding”; and DEGGTDAV, with “no binding”. Then DEGGTDAA, with “no binding”; and SEGTGDWV, with “no binding”. Consider VETGNDVA, for which the non-specific binding call is on record as “no binding”.

Consider DEGGTSSA, for which the non-specific binding call is reported as “no binding”. Then SEGRGSGV, with “no binding”; and SEGRGDAA, with “no binding”; and VEGTGAGD, with “no binding”. Then YEGGGYSF, with “no binding”. Then SERRSSAF, with “no binding”.

In the case of VETGNDLV, the non-specific binding call was “no binding”. Under VETGNSLV stands “no binding”; under VERASAVV, “no binding”. In the case of YETTDSWV, the non-specific binding call is recorded as “no binding”. Under VEGGTAGS stands “no binding”; under DEGGTAVV, “no binding”; under DEGGTAVA, “no binding”. Under AERRDDGA stands “no binding”. In the case of SEGGSAAY, the non-specific binding call is “no binding”. Then YEGTGSGD, with “no binding”; and YERESAAV, with “no binding”; and DEGGTDSA, with “no binding”. With DEGGTDSF, the non-specific binding call is listed as “no binding”. Consider YERRSSAF, for which the non-specific binding call is reported as “no binding”. Under DETGNVWF stands “no binding”; under VETGNAVY, “no binding”. Under YETEGDVF stands “no binding”; under SETGGAGD, “no binding”; under VEKGGDWD, “no binding”.

With SETGNVWF, the non-specific binding call is recorded as “no binding”. Under YERRGSWS stands “no binding”; under SEGRGDGA, “no binding”; under AETKGFAV, “no binding”. For DEGTGALA, the non-specific binding call is recorded as “no binding”.

Values taken from the emibetuzumab library of Makowski et al. (2022).
